Patent US20040018198A1 (Amgen, published 2004)
Numbering of substitutions follows the chain as printed.

B1: AB-MN-22.7 (antibody, human IgG2, V domains shown)
VH: QVQLVESGGGVVQPGRSLRLSCAASGFTFSSYGMHWVRQAPGKGLEWVAVISYDGSNKYYADSVKGRFTFSRDNSKNTLYLQMNSLRAEDTAVYYCARRGITMVRGAPSYYGMDVWGQGTTVTVSS
VL: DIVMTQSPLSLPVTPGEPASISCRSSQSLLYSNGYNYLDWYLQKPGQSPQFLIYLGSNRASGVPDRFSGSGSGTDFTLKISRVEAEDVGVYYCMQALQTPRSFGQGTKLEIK
notes: also called AX014H22-7
B2: AB-MN-XG1-023 (antibody, human IgG1, V domains shown)
VH: QVQLQESGPGLVKPSQTLSLTCTVSGGSISSGGYYWSWIRQHPGKGLEWIGYIYYSGSTYYNPSLKSRVTISVDTSKNQFSLKLSSVTAADTAVYYCARENYDILTGFNWFDPWGQGTLVTVSS
VL: DIQMTQSPSSVSASVGDRVTITCRASQGISSWLAWYQQKPGKAPKVLIYSTSRLQSGVPSRFSGSGSGTDFTLTISSLQPEDFATYYCQQADSFRTFGQGTKVEIK
notes: also called MN23; AB-MN-XG1-23
B3: AB-MN-22.15 (antibody, human IgG2, V domains shown)
VH: QVQLQESGPGLVKPSQTLSLTCTVSGGSISSGGYYWSWIRQHPGKGLEWIGYIYYSGYTYYNPSLKSRVTISVDTSKNQFSLKLSSVTAADTAVYYCARDRYYDILTGYYNYGMDVWGQGTTVTVSS
VL: not shown
notes: also called AX014H22-15
B4: AB-MN-21.2.1 (antibody, human IgG1, V domains shown)
VH: QVQLQESGPGLVKPSQTLSLTCTVSGGSISSGGYYWNWIRQHPGKGLEWIGYIYYSGSTYYNPSLKSRVTISVDTSKNQFSLKLSSVTAADTAVYYCARTYYDILTGYPDAFDIWGQGTMVTVSS
VL: DIQMTQSPSSLSASVGDRVTITCRASQDIRNDLGWYQQKPGKAPKRLICAASSLQSGVPSSFSGSGSGTEFTLTISSLQPEDFATYYCLQHNSYPWTFGQGTKVEIK
notes: also called AX014H21-2-1
B5: AB-MN-22.14 (antibody, human IgG2, V domains shown)
VH: QVQLQESGPGLVKPSETLSLTCTVSGGSVISGGYYWSWIRQPPGKGLEWIGYIYYSGSSNYNPSLKSRVTISVDASKNQFSLRLSSVTAADTAVYYCARSMVRGVSFDYWGQGTLVTVSS
VL: B4 VL with D28G, C49Y, S61R, W96L, Q100G
notes: also called AX014H22-14
B6: AB-MN-22.30 (antibody, human IgG2, V domains shown)
VH: QVQLVESGGGVVQPGRSLRLSCAASGFTFSSYAMHWVRQAPGKGLEWVAVIWYDGSTKYYADSVKGRFTISRDNSKNTLYLQMNSLRAEDTAVYYCARDRGLLWFGELSPHYGMDVWGQGTTVTVSS
VL: B4 VL with D28G, C49Y, S61R, E70D, N92Y, W96L, Q100G
notes: also called AX014H22-30
B7: AB-MN-22.25 (antibody, human IgG2, V domains shown)
VH: QLQLQESGPGLVKPSETLSLTCTVSDGSISSSSYYWGWIRQPPGKGLEWIGSIYYSGSTYYNPSLKSRVTISVDTSKNQFSLKLSSVTAADTAVYYCARHGSFFDYWGQGTLVTVSS
VL: B4 VL with D28G, C49Y, S61R, A84T, H91Y, N92K
notes: also called AX014H22-25
B8: AB-MN-22.28.1 (antibody, human IgG2, V domains shown)
VH: QVQLEQSGGGLVQPGGSLRLSCAASGFTFSSYAMSWVRQAPGKGLEWVSAISGSGGGTYYADSVKGRFTISRDNSKNTLYLQMNSLRAEDTAVYYCASGRYYYYYDMDVWGQGTTVTVSS
VL: B4 VL with Q3R, M4L, D28G, C49Y, S61R, W96L, Q100G
notes: the numbering there is inconsistent; also called AX014H22-28-1
B9: AB-MN-22.18 (antibody, human IgG2, V domains shown)
VH: B4 VH
VL: B4 VL
notes: also called AX014H22-18
B10: AB-MN-22.20 (antibody, human IgG2, V domains shown)
VH: B4 VH with Y34S, N37T, S58N
VL: B4 VL with D28G, C49Y, S61R, A84T, H91Y, N92K
notes: also called AX014H22-20
B11: AB-MN-XG1-080 (antibody, human IgG1, V domains shown)
VH: QVQLQESGPGLVKPSETLSLTCTVSGGSISSYYWSWIRQPPGKGLEWIGYIYYSGSTNYNPSLKSRVTISVDTSKNQFSLKLSSVTAADTAVYYCARDTRTIFGVVSGMDVWGQGTTVTVSS
VL: EIVLTQSPGTLSLSPGERATLSCRASQSVYSSYLAWYQQKPGQAPRLLIYGASSRAPGIPDRFSGSGSGTDFTLTISRLEPEDFAVYYCQHYGRSLTFGGGTKVEIK
notes: also called MN80
B12: AB-MN-22.19 (antibody, human IgG2, V domains shown)
VH: QVQLQESGPGLVKPSETLSLTCTVSGGSISFYYWNWIRQPAGKGLEWVGRIYTSGSTNYNPSLKSRVTMSVDTSKNQFSLKLSSVTAADTAVYYCARGGFLEWDYYYGMDVWGQGTTVTVSS
VL: B11 VL with Y30S, S31V, S32T, P57T, H91Q, R94S, L96V
notes: also called AX014H22-19
B13: AB-MN-XG1-141 (antibody, human IgG1, V domains shown)
VH: B11 VH with T23S, K75N, Q77H
VL: B11 VL with A25T, S28T, S32T, P57T, Y87F
notes: also called MN141
B14: AB-MN-22.13.1 (antibody, human IgG2, V domains shown)
VH: RVQLVESGGGLVQPGGSLRLSCAASGFTFSRYSMNWVRQAPGKGLEWVSYISSSSSTIYYADSVKGRFTISRDSAKNSLYLQMNSLRDEDTAVYYCARSLRSGGMDVWGQGTTVTVSS
VL: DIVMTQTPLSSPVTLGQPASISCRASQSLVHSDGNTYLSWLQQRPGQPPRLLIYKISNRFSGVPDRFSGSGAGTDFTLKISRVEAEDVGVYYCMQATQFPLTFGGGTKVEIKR
notes: also called AX014H22-13-1
B15: AB-MN-21.10.1 (antibody, human IgG1, V domains shown)
VH: QLEQSGPGLVKPSETLSLTCTVSDGSISSSSYYWGWIRQPPGKGLEWIGSIYYSGSTYYNPSLKSRVTISVDTSKNQFSLKLSSVTAADTAVYYCARHGSFFDYWGQGTLVTVSS
VL: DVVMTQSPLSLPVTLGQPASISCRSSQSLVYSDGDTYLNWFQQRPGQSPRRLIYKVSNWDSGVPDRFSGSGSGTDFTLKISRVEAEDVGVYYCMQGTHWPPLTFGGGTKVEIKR
notes: also called 21.10.1 g; AX014H21-10-1
B16: AB-MN-21.17.1 (antibody, human IgG1, V domains shown)
VH: QVQLQESGPGLVKPSETLSLTCTVSGGSISSYYWSWIRQPAGKGLEWIGRIYTSGSTNYNPSLKSRVTMSVDTSKNQFSLKLSSVTAADTAVYYCARDGQWLEDYGMDVWGQGTTVTV
VL: EIVLTQSPGTLSLSPGERATLSCWASQSVFSNYLAWYQQKPGQAPRLLIYGASSRATGIPDRFSGSGSGTDFPLTISRLEPEDFAVYYCQQYGSSPLTFGGGTKVEIK
notes: also called 21.17.1 I; AX014H21-17-1
B17: AB-MN-XG1-051 (antibody, human IgG1, V domains shown)
VH: EVQLVEFGGGLVKPGGSLRLSCAASGFTFSSFRMNWVRQAPGEGLEWVSSITSSSSYIYYADSVKGRFTISRDNAKNSLYLQMNSLRAEDTAVYYCARFTAMALDYWGQGTLVTVSS
VL: DIQMTQSPSSLSASVGDRVTITCRASQGIFNYLAWYQQKPGKVPKLLIYAASTLQSGVPSRFSGSGSGTDFTLTISSLQPEDVAVYYCLKYNSAPWTFGQGTKVEIK
notes: also called MN51; AB-MN-XG1-51
B18: AB-MN-22.8.1 (antibody, human IgG2, V domains shown)
VH: SGPGLVKPSETLSLTCTVSGGSISSYYWSWIRQPPGKGLEWIGYIYYSGSTNYNPSLKSRVTISVDTSKNQFSLKLTSVTAADTAVYYCARDQHSSSVYYYYYGMDVWGQGTTVTVSS
VL: ETQLTQSPGTLSLSPGERATLSCRASQSIYINYLAWYQQKPGQAPRLLISGASSRATGIPDRFSGSGSGTDFTLTISRLEPEDFAVYYCQQYGRSLTFGGGTEVEIKR
notes: also called AX014H22-8-1
B19: AB-MN-21.6.1 (antibody, human IgG1, V domains shown)
VH: QVQLQESGPGLVKPSQTLSLTCTVSGGSISSGGYYWSWIRQHPGKGLEWIGYIYYSGSTYYNPSLKSRVTISVDTSKNQFSLKLSSVTAADTAVYYCARAGKYYGSGSYLDYWGQGTLVTVSS
VL: not shown
notes: also called AX014H21-6-1
B20: AB-MN-21.5.2 (antibody, V domains shown)
VH: B19 VH with Q5E, E6Q, Y34R, V73I, K102T
VL: not shown
notes: also called 21.5.2 n; AX014H21-5-2
B21: AB-MN-21.1.1 (antibody, human IgG1, V domains shown)
VH: QVQLQESGPGLVKPSETLSLTCTVSGGSISSYYWSWIRQPPGKGLEWIGYIYYSGSTNYNPSLKSRVTISVDTSKNQFSLKLSSVTAADTAVYYCARRGYDILTGYDYFDYWGQGTLVTVSS
VL: DIQMTQSPSSVSASVGDRVTITCRASQGISIWLTWYQQKPGKAPKLLIYAASSLQSGVPSRFSGSGSGTDFTLTISSLQPEDFATYYCQQANSFPITFGQGTRLEIK
notes: also called 21.1.1 a; AX014H21-1-1
B22: AB-MN-22.12 (antibody, human IgG2, V domains shown)
VH: QVQLQESGPGLVKPSETLSLTCTVSGGSISSYYWSWIRQPPGKGLEWIGYIYSSGSTNYNPSLKSRVTISVDTSKNQFSLKLSSVTAADTAVYYCARDQHSSSFYYYYYGMDVWGQGTTVTVSS
VL: B21 VL with I31S, T34A, I96L, Q100P, R103K, L104V, E105D
notes: also called AX014H22-12
B23: AB-MN-22.17 (antibody, human IgG2, V domains shown)
VH: B21 VH
VL: B21 VL
notes: also called AX014H22-17
B24: AB-MN-22.29 (antibody, human IgG2, V domains shown)
VH: QVQLQESGPGLVKPSETLSLTCTVSGGSISSYYWSWIRQPAGKGLEWIGRIYTSGSTNYNPSLKSRVTMSVDTSKNQFSLKLSSVTAADTAVYYCARDGQWLEDYGMDVWGQGTTVTVSS
VL: B21 VL with I31S, T34A, Y36F
notes: also called AX014H22-29
B25: AB-MN-21.14.1 (antibody, human IgG1, V domains shown)
VH: B21 VH with I102F
VL: B21 VL with I31S, T34A, Y36F
notes: also called 21.14.1 j; AX014H21-14-1

How the values were obtained:
[1] = biological target: CA-IX-His-ECD (his-V5 tagged version of the CA IX protein, extracellular domain) (human, UniProt Q16790 38-414); test: ELISA on CA-IX-His-ECD
[2] = biological target: CA IX catalytic domain protein (CA9-CD) (human, UniProt Q16790 138-391); test: ELISA on CA9-CD (catalytic domain)

Binder | OD [1] [OD] | OD [2] [OD]
B1 | 0.097 | 0.715
B2 | 2.22 | 2.42
B3 | 0.831 | 2.53
B4 | 1.21 | 2.48
B5 | 0.763 | 2.03
B6 | 2.2 | 2.46
B7 | 1.84 | 2.48
B8 | 0.404 | 2.54
B9 | 2.23 | 2.75
B10 | 1.72 | 2.71
B11 | 2.71 | 2.85
B12 | 2.12 | 3.01
B13 | 2.56 | 2.56
B14 | 1.85 | 0.118
B15 | 0.059 | –
B16 | 1.85 | 2.66
B17 | 2.47 | 2.88
B18 | 2.41 | 2.77
B19 | 0.618 | 2.25
B20 | 0.893 | 2.43
B21 | 1.64 | 2.5
B22 | 2.38 | 2.58
B23 | 2.16 | 2.57
B24 | 1.96 | 2.52
B25 | 1.78 | 2.47
